B1: RCP-1: recombinant polypeptide, human vitronectin positions 1-55 and 269-459, methionine on the N-terminal (protein)
chain: MDQESCKGRCTEGFNVDKKCQCDELCSYYQSCCTDYTAECKPQVTRGDVFTMPEDEPSQEECEGSSLSAVFEHFAMMQRDSWEDIFELLFWGRTSAGTRQPQFISRDWHGVPGQVDAAMAGRIYISGMAPRPSLAKKQRFRHRNRKGYRSQRGHSRGRNQNSRRPSRATWLSLFSSEESNLGANNYDDYRMDWLVPATCEPIQSVFFFSGDKYYRVNLRTRRVDTVDPPYPRSIAQYWLGCPAPGHL
modifications: Synthetic Peptide RCP-1
B2: RCP-15: recombinant polypeptide, human vitronectin positions 56-459 (protein)
chain: GPLGYTVYDDGEEKNNATVHEQVGGPSLTSDLQAQSKGNPEQTPVLKPEEEAPAPEVGASKPEGIDSRPETLHPGRPQPPAEEELCSGKPFDAFTDLKNGSLFAFRGQYCYELDEKAVRPGYPKLIRDVWGIEGPIDAAFTRINCQGKTYLFKGSQYWRFEDGVLDPDYPRNISDGFDGIPDNVDAALALPAHSYSGRERVYFFKGKQYWEYQFQHQPSQEECEGSSLSAVFEHFAMMQRDSWEDIFELLFWGRTSAGTRQPQFISRDWHGVPGQVDAAMAGRIYISGMAPRPSLAKKQRFRHRNRKGYRSQRGHSRGRNQNSRRPSRATWLSLFSSEESNLGANNYDDYRMDWLVPATCEPIQSVFFFSGDKYYRVNLRTRRVDTVDPPYPRSIAQYWLGCPAPGHL
modifications: Synthetic Peptide RCP-15
B3: RCP-16: recombinant polypeptide, human vitronectin positions 269-459 (protein)
chain: GPLGPSQEECEGSSLSAVFEHFAMMQRDSWEDIFELLFWGRTSAGTRQPQFISRDWHGVPGQVDAAMAGRIYISGMAPRPSLAKKQRFRHRNRKGYRSQRGHSRGRNQNSRRPSRATWLSLFSSEESNLGANNYDDYRMDWLVPATCEPIQSVFFFSGDKYYRVNLRTRRVDTVDPPYPRSIAQYWLGCPAPGHL
modifications: Synthetic Peptide RCP-16
B4: RCP-13: recombinant polypeptide, human vitronectin positions 1-55, 56-129 (protein)
chain: GPLGDQESCKGRCTEGFNVDKKCQCDELCSYYQSCCTDYTAECKPQVTRGDVFTMPEDEYTVYDDGEEKNNATVHEQVGGPSLTSDLQAQSKGNPEQTPVLKPEEEAPAPEVGASKPEGIDSRPETLHPGRPQP
modifications: Synthetic Peptide RCP-13
B5: RCP-11: recombinant polypeptide corresponding to the sequence of natural human vitronectin, positions 1-459 (protein)
chain: GPLGDQESCKGRCTEGFNVDKKCQCDELCSYYQSCCTDYTAECKPQVTRGDVFTMPEDEYTVYDDGEEKNNATVHEQVGGPSLTSDLQAQSKGNPEQTPVLKPEEEAPAPEVGASKPEGIDSRPETLHPGRPQPPAEEELCSGKPFDAFTDLKNGSLFAFRGQYCYELDEKAVRPGYPKLIRDVWGIEGPIDAAFTRINCQGKTYLFKGSQYWRFEDGVLDPDYPRNISDGFDGIPDNVDAALALPAHSYSGRERVYFFKGKQYWEYQFQHQPSQEECEGSSLSAVFEHFAMMQRDSWEDIFELLFWGRTSAGTRQPQFISRDWHGVPGQVDAAMAGRIYISGMAPRPSLAKKQRFRHRNRKGYRSQRGHSRGRNQNSRRPSRATWLSLFSSEESNLGANNYDDYRMDWLVPATCEPIQSVFFFSGDKYYRVNLRTRRVDTVDPPYPRSIAQYWLGCPAPGHL
modifications: Synthetic Peptide CRP-11

Columns and labels:
[1] = Evaluation of adsorbability with respect to culture dish; format: physicochemical; conditions: FIG. 1; for adsorbability with respect to the plate (in words): 0 to 200 pmol/cm^2 added, 2 hours at 37° C., compared with RCP-11
Method: Each of the polypeptides obtained as above was diluted with a predetermined buffer such that they could be added to wells at a predetermined final concentration of 0 pmol/cm^2 to 200 pmol/cm^2. Thereafter, each of the polypeptides was added in an amount of 64 μL to a plasma-treated 96-well plate made of polystyrene (Tissue Culture-Treated, Falcon). Each of the polypeptides was allowed to adsorb onto the plate by being incubated for 2 hours at 37° C., and then the wells were washed twice with PBS, thereby obtaining surfaces coated with each of the polypeptides of RCP-1 to RCP-16.
Among the surfaces coated with each of the polypeptides obtained as above, the surfaces coated with RCP-1 and RCP-11 to RCP-16 were applied with 64 μL of a borate buffer and 64 μL of 1 N NaOH, followed by incubation for 24 hours at 80° C. and 100% humidity. After the resultant was air-cooled, 75 μL of a borate buffer was added to each well, and 50 μL of a reaction solution obtained by mixing OPA (o-phthalaldehyde: Wako Pure Chemical Industries, Ltd./methanol solution (160 mg/ml)) with N-acetyl-L-cysteine (NAC: Wako Pure Chemical Industries, Ltd.)/borate buffer solution (2 mg/ml) at a ratio of 1:100 (mass ratio) was further added thereto. After incubation for 30 minutes at 40° C., the fluorescence intensity thereof was measured by using an Envision Multilabel Counter (PerkinElmer Inc.) (excitation 355 nm/fluorescence 486 nm). A calibration curve was separately prepared from each of the polypeptide solutions so as to calculate the amount of the polypeptide adsorbed. In FIG. 1, a black rhombus indicates RCP-1, a black square indicates RCP-11, a black triangle indicates RCP-12, a black circle indicates RCP-13, a white rhombus indicates RCP-14, a white square indicates RCP-15, and a white triangle indicates RCP-16.

human iPS cells [2] = assay: Evaluation of maintenance of undifferentiated state; format: cell-based; conditions: for form of the iPS cell colony: FIGS. 3A to 3E, TeSR2, subcultured every six days; for maintenance of the undifferentiated state (NANOG staining): FIGS. 4A to 4E, after culture for 1 month
Method: iPS cells collected in the same manner as in <Cell adhesiveness evaluation 1> were suspended in TeSR2. The iPS cells were seeded into 6-well plate (Tissue culture-treated, Falcon), onto which each of the samples 1, 2, 5, 6, and 7 used in <Cell adhesiveness evaluation 1> was adsorbed in the same manner as in <Cell adhesiveness evaluation 1>, and cultured in a CO2 incubator at 37° C. Except for the day after the seeding, the medium was replaced every day. In the same method as described above, the cells were subcultured every six days. FIGS. 3A to 3E show forms of the iPS cells cultured on each of the samples.
After being cultured for 1 month under the conditions described above, the cells were immobilized using 4% paraformaldehyde and treated with 1% Triton-X/PBS so as to enhance the membrane permeability. After the cells were subjected to a blocking treatment using an Image IT Signal Enhancer (Invitrogen), an anti-human NANOG antibody (AF 1997, R&D Systems, Inc.), an Alexa Fluor 555 binding rabbit anti-goat IgG antibody (Invitrogen), and DAPI (Dojindo Molecular Technologies, Inc.) were added thereto for labeling, and the cells were imaged using a fluorescence microscope. FIGS. 4A to 4E show the fluorescence microscopic images.
FIGS. 3A and 4A show the iPS cells cultured on RCP-1; FIGS. 3B and 4B show the iPS cells cultured on RCP-11; FIGS. 3C and 4C show the iPS cells cultured on natural human vitronectin; FIGS. 3D and 4D show the iPS cells cultured on rLaminin-5; and FIGS. 3E and 4E show the iPS cells cultured on rLaminin-511. The scale bar in the images indicates 100 μm. In FIGS. 3A to 3E, the images on the left side are full images of the colony, and the images on the right side are magnified images. In FIGS. 4A to 4E, the images on the left side are images of the cells stained with DAPI, and the images on the right side are images of the cells stained with an anti-NANOG antibody. The scale bar in FIGS. 3 and 4 indicates 200 μm.

human iPS cells [3] = assay: Growth evaluation, growth curves over 8 days; format: cell-based; conditions: FIG. 2; 250 cells/well
Method: The iPS cells collected in the same manner as in <Cell adhesiveness evaluation 1> were seeded into a 96-well plate, onto which RCP-1, RCP-11, and natural human vitronectin were adsorbed, at a ratio of 250 cells/well and cultured for 8 days in a 5% CO2 incubator at 37° C. The number of adhesive cells after different days of culture was measured in the same manner as in <Cell adhesiveness evaluation 1>, thereby obtaining growth curves. […] In FIG. 2, a black rhombus indicates a case using RCP-1, and a black square indicates a case using RCP-11.

Molecule	adsorbability with respect to the plate (in words) [1]	form of the iPS cell colony (human iPS cells [2])	maintenance of the undifferentiated state (NANOG staining) (human iPS cells [2])	amount adsorbed onto the plate relative to the polypeptide including SEQ ID NO: 3 [1]	number of cells on Day 8 of culture relative to the case where RCP-1 was used (human iPS cells [3])
B1	excellent adsorbability	form specific to undifferentiated cells	strongly expressed NANOG in the entirety of the colony	–	–
B2	excellent adsorbability	–	–	–	–
B3	excellent adsorbability	–	–	–	–
B4	–	–	–	about 1/4	–
B5	–	form specific to undifferentiated cells	strongly expressed NANOG in the entirety of the colony	–	about 1/3

From patent publication US20160244728A1, “CULTURE METHOD FOR PLURIPOTENT STEM CELLS AND KIT AND MEDIUM FOR CULTURE OF PLURIPOTENT STEM CELLS USED THEREIN” (FUJIFILM Corporation, priority 2013, published 2016)
